Assay results published in patent US20200270588A1, “GLUCOSYL TRANSFERASE POLYPEPTIDES AND METHODS OF USE” (Syngenta Participations AG, priority 2017, published 2020).

Assay: UDP luminescence plate assay of E. coli extracts, mutants of SEQ ID No: 1, 2 mM metribuzin
Format: biochemical, Zea mays
Details: for RATIO of the metribuzin signal to the DMSO signal: 2 mM metribuzin vs DMSO control, same mutant; for SIGNAL: metribuzin signal of mutant divided by the signal of w/t bx9 / luminescence signal observed with 2 mM metribuzin: 2 mM metribuzin; for SIGNAL: metribuzin signal of mutant divided by the signal of w/t bx9: relative to bx9 w/t; for luminescence signal in the DMSO control: mutants of SEQ ID No: 1, DMSO in place of metribuzin (background UDP-glucose hydrolysis); for luminescence signal observed with 2 mM metribuzin: mutants of SEQ ID No: 1 in E. coli extracts, UDP luminescence
Summary of the method: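 Extracts of E. coli BL21 DE3 expressing C-terminally His-tagged SEQ ID NO:1 variants incubated with 2 mM metribuzin; UDP formed read by UDP-Glo luminescence against a UDP standard curve, with optional 95 C stop. Mutants ranked by metribuzin/DMSO signal ratio and signal increase over wild-type bx9.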

B1: M136F (protein)
chain: MASSRTGAGAGGRVVVFPFPFQGHFNPVMRLARALHARGLAITVFHSGALDPADYPADYRFVPVTVEADPKLLASEDIAAIVTTLNASCDAPFRARLSALLAAEGRDSVRCVFTDVSWNAVLTASSDLGVPALGMFTASAASLRDYMAYRTLIDKGYLPVKEERKEDPVPELPPYLVKDLLRVDTSDLEEFAELLARTVTAARRASGLIFNTFPLIETDTLAEIHKALSVPVFAVAPLNKLVPTATASLHGVVQADRGCLQWLDTQQPGSVLYVSFGSMAAMDPHEFVELAWGLADSKRPFVWVVRPNLIRGFESGALPDGVEDEVRGRGIVVAWAPQEEVLAHPAVGGFLTHNGWNSTVEAISEGVPMVCCPRHGDQFGNMRYVCDVWKVGTELVGEQLERGQVKAAIDRLFGTKEGEEIKERMKEFKIAAAKGIGIGVDVDETASPRTDLTDLVDLIKSF
modifications: Zea mays
RATIO of the metribuzin signal to the DMSO signal: 1.00
SIGNAL: metribuzin signal of mutant divided by the signal of w/t bx9: 0.93
luminescence signal in the DMSO control: 2.57E+05
luminescence signal observed with 2 mM metribuzin: 2.59E+05

B2: L143F (protein)
chain: MASSRTGAGAGGRVVVFPFPFQGHFNPVMRLARALHARGLAITVFHSGALDPADYPADYRFVPVTVEADPKLLASEDIAAIVTTLNASCDAPFRARLSALLAAEGRDSVRCVFTDVSWNAVLTASSDLGVPALGMMTASAASFRDYMAYRTLIDKGYLPVKEERKEDPVPELPPYLVKDLLRVDTSDLEEFAELLARTVTAARRASGLIFNTFPLIETDTLAEIHKALSVPVFAVAPLNKLVPTATASLHGVVQADRGCLQWLDTQQPGSVLYVSFGSMAAMDPHEFVELAWGLADSKRPFVWVVRPNLIRGFESGALPDGVEDEVRGRGIVVAWAPQEEVLAHPAVGGFLTHNGWNSTVEAISEGVPMVCCPRHGDQFGNMRYVCDVWKVGTELVGEQLERGQVKAAIDRLFGTKEGEEIKERMKEFKIAAAKGIGIGVDVDETASPRTDLTDLVDLIKSF
modifications: Zea mays
RATIO of the metribuzin signal to the DMSO signal: 1.09
SIGNAL: metribuzin signal of mutant divided by the signal of w/t bx9: 1.23
luminescence signal in the DMSO control: 3.18E+05
luminescence signal observed with 2 mM metribuzin: 3.45E+05

B3: C372L (protein)
chain: MASSRTGAGAGGRVVVFPFPFQGHFNPVMRLARALHARGLAITVFHSGALDPADYPADYRFVPVTVEADPKLLASEDIAAIVTTLNASCDAPFRARLSALLAAEGRDSVRCVFTDVSWNAVLTASSDLGVPALGMMTASAASLRDYMAYRTLIDKGYLPVKEERKEDPVPELPPYLVKDLLRVDTSDLEEFAELLARTVTAARRASGLIFNTFPLIETDTLAEIHKALSVPVFAVAPLNKLVPTATASLHGVVQADRGCLQWLDTQQPGSVLYVSFGSMAAMDPHEFVELAWGLADSKRPFVWVVRPNLIRGFESGALPDGVEDEVRGRGIVVAWAPQEEVLAHPAVGGFLTHNGWNSTVEAISEGVPMVCLPRHGDQFGNMRYVCDVWKVGTELVGEQLERGQVKAAIDRLFGTKEGEEIKERMKEFKIAAAKGIGIGVDVDETASPRTDLTDLVDLIKSF
modifications: Zea mays
RATIO of the metribuzin signal to the DMSO signal: 1.06
SIGNAL: metribuzin signal of mutant divided by the signal of w/t bx9: 1.22
luminescence signal in the DMSO control: 3.22E+05
luminescence signal observed with 2 mM metribuzin: 3.41E+05

B4: A334P (protein)
chain: MASSRTGAGAGGRVVVFPFPFQGHFNPVMRLARALHARGLAITVFHSGALDPADYPADYRFVPVTVEADPKLLASEDIAAIVTTLNASCDAPFRARLSALLAAEGRDSVRCVFTDVSWNAVLTASSDLGVPALGMMTASAASLRDYMAYRTLIDKGYLPVKEERKEDPVPELPPYLVKDLLRVDTSDLEEFAELLARTVTAARRASGLIFNTFPLIETDTLAEIHKALSVPVFAVAPLNKLVPTATASLHGVVQADRGCLQWLDTQQPGSVLYVSFGSMAAMDPHEFVELAWGLADSKRPFVWVVRPNLIRGFESGALPDGVEDEVRGRGIVVPWAPQEEVLAHPAVGGFLTHNGWNSTVEAISEGVPMVCCPRHGDQFGNMRYVCDVWKVGTELVGEQLERGQVKAAIDRLFGTKEGEEIKERMKEFKIAAAKGIGIGVDVDETASPRTDLTDLVDLIKSF
modifications: Zea mays
RATIO of the metribuzin signal to the DMSO signal: 0.88
SIGNAL: metribuzin signal of mutant divided by the signal of w/t bx9: 1.24
luminescence signal in the DMSO control: 3.97E+05
luminescence signal observed with 2 mM metribuzin: 3.48E+05

B5: A334I (protein)
chain: MASSRTGAGAGGRVVVFPFPFQGHFNPVMRLARALHARGLAITVFHSGALDPADYPADYRFVPVTVEADPKLLASEDIAAIVTTLNASCDAPFRARLSALLAAEGRDSVRCVFTDVSWNAVLTASSDLGVPALGMMTASAASLRDYMAYRTLIDKGYLPVKEERKEDPVPELPPYLVKDLLRVDTSDLEEFAELLARTVTAARRASGLIFNTFPLIETDTLAEIHKALSVPVFAVAPLNKLVPTATASLHGVVQADRGCLQWLDTQQPGSVLYVSFGSMAAMDPHEFVELAWGLADSKRPFVWVVRPNLIRGFESGALPDGVEDEVRGRGIVVIWAPQEEVLAHPAVGGFLTHNGWNSTVEAISEGVPMVCCPRHGDQFGNMRYVCDVWKVGTELVGEQLERGQVKAAIDRLFGTKEGEEIKERMKEFKIAAAKGIGIGVDVDETASPRTDLTDLVDLIKSF
modifications: Zea mays
RATIO of the metribuzin signal to the DMSO signal: 0.89
SIGNAL: metribuzin signal of mutant divided by the signal of w/t bx9: 1.05
luminescence signal in the DMSO control: 3.29E+05
luminescence signal observed with 2 mM metribuzin: 2.94E+05

B6: H24A (protein)
chain: MASSRTGAGAGGRVVVFPFPFQGAFNPVMRLARALHARGLAITVFHSGALDPADYPADYRFVPVTVEADPKLLASEDIAAIVTTLNASCDAPFRARLSALLAAEGRDSVRCVFTDVSWNAVLTASSDLGVPALGMMTASAASLRDYMAYRTLIDKGYLPVKEERKEDPVPELPPYLVKDLLRVDTSDLEEFAELLARTVTAARRASGLIFNTFPLIETDTLAEIHKALSVPVFAVAPLNKLVPTATASLHGVVQADRGCLQWLDTQQPGSVLYVSFGSMAAMDPHEFVELAWGLADSKRPFVWVVRPNLIRGFESGALPDGVEDEVRGRGIVVAWAPQEEVLAHPAVGGFLTHNGWNSTVEAISEGVPMVCCPRHGDQFGNMRYVCDVWKVGTELVGEQLERGQVKAAIDRLFGTKEGEEIKERMKEFKIAAAKGIGIGVDVDETASPRTDLTDLVDLIKSF
modifications: Zea mays
luminescence signal in the DMSO control: 2.60E+05
luminescence signal observed with 2 mM metribuzin: 2.39E+05

B7: L143W (protein)
chain: MASSRTGAGAGGRVVVFPFPFQGHFNPVMRLARALHARGLAITVFHSGALDPADYPADYRFVPVTVEADPKLLASEDIAAIVTTLNASCDAPFRARLSALLAAEGRDSVRCVFTDVSWNAVLTASSDLGVPALGMMTASAASWRDYMAYRTLIDKGYLPVKEERKEDPVPELPPYLVKDLLRVDTSDLEEFAELLARTVTAARRASGLIFNTFPLIETDTLAEIHKALSVPVFAVAPLNKLVPTATASLHGVVQADRGCLQWLDTQQPGSVLYVSFGSMAAMDPHEFVELAWGLADSKRPFVWVVRPNLIRGFESGALPDGVEDEVRGRGIVVAWAPQEEVLAHPAVGGFLTHNGWNSTVEAISEGVPMVCCPRHGDQFGNMRYVCDVWKVGTELVGEQLERGQVKAAIDRLFGTKEGEEIKERMKEFKIAAAKGIGIGVDVDETASPRTDLTDLVDLIKSF
modifications: Zea mays
RATIO of the metribuzin signal to the DMSO signal: 1.12
SIGNAL: metribuzin signal of mutant divided by the signal of w/t bx9: 0.97
luminescence signal in the DMSO control: 2.42E+05
luminescence signal observed with 2 mM metribuzin: 2.72E+05
